Assay [1] has as its target ATG9A FITC-….
For another assay, the target named is USP7 MATH. The assay is described as follows: FP.
The target in assay [2] is G3BP1 NTF2 domain (human) (UniProt Q13283).
The target in assay [3] is G3BP2 NTF2 domain (human) (UniProt Q9UN86).
Assay [4] has as its target ATG8 domain of MAP1LC3C (human) (UniProt Q9BXW4). The assay is described as follows: FP.
A further assay concerns the target AP2M1 (human) (UniProt Q96CW1).
For assay [5], the target named is FITC-SQSTM1 peptide 335-344 (human).
Assay [6] has as its target SQSTM1 FITC-….
The target in another assay is USP7 (human) (UniProt Q93009).
In assay [7] the target is FITC-MDM2 peptide (human).
Assay [8] has as its target MAP1LC3C ATG8 domain (human) (UniProt Q9BXW4).

The values below come from PMC8605023.

Chain of AP2M1 (human) (Q96CW1 whole entry): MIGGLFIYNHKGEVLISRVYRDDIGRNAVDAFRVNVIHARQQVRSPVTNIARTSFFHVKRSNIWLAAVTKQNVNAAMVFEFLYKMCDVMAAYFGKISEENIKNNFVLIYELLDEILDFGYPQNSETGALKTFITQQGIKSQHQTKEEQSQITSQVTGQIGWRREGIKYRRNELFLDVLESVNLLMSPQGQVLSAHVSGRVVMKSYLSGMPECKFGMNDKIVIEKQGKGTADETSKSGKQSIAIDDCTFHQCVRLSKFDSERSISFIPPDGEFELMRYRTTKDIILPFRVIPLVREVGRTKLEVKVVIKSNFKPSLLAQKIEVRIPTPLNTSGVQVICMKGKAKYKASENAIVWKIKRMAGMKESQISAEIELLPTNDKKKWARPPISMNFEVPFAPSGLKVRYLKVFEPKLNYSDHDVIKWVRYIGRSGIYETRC
Chain of G3BP2 NTF2 domain (human) (Q9UN86 11-133): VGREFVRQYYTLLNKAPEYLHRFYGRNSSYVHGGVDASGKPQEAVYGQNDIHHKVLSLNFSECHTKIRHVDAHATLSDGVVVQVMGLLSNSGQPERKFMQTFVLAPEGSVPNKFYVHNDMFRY
Chain of USP7 (human) (Q93009 whole entry): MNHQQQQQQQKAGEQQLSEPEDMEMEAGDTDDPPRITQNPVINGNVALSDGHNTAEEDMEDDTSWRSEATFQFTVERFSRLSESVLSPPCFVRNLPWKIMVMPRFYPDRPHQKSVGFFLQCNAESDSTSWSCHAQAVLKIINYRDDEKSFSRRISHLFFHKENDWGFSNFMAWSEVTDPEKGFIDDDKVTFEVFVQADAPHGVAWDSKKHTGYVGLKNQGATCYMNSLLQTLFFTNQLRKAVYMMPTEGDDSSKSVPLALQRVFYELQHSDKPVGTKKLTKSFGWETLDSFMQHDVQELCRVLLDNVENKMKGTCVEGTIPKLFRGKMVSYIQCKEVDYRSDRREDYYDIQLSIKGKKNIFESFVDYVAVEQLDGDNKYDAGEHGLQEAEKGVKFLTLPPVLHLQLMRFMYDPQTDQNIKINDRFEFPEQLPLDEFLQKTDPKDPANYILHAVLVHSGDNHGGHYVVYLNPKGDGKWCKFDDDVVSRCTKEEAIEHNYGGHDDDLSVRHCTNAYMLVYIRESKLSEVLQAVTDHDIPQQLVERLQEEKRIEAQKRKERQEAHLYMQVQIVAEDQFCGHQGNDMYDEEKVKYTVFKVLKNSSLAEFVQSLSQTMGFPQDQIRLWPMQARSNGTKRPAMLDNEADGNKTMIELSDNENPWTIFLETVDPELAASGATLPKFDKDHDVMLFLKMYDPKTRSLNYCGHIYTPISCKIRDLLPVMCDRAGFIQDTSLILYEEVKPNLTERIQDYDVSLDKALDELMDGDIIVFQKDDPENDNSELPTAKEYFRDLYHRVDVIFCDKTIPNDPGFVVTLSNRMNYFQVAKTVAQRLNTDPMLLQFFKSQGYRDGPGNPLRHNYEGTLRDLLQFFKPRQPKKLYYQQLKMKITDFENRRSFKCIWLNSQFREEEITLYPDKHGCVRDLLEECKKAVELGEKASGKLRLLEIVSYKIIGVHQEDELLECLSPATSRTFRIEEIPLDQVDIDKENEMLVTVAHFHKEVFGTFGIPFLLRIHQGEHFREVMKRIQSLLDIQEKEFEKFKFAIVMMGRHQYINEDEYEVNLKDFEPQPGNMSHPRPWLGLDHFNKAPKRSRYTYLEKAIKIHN
Chain of G3BP1 NTF2 domain (human) (Q13283 11-133): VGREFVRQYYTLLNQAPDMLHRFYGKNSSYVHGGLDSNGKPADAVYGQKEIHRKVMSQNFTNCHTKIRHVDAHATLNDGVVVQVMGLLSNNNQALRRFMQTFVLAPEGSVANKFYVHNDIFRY
Chain of ATG8 domain of MAP1LC3C (human) (Q9BXW4 whole entry, the tested form may be a part): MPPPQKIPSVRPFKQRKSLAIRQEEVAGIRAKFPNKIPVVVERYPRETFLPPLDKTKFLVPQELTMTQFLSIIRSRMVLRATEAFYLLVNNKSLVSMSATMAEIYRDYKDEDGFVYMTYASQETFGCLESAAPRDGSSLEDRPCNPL
Chain of MAP1LC3C ATG8 domain (human) (Q9BXW4 1-126): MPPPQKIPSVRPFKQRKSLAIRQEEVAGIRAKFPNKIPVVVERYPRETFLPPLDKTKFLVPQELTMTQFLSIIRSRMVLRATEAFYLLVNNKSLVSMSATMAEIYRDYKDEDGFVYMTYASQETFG

In turn, “AP2M1 (from UniProt Q96CW1 1-435) (domain or fragment)” had an equilibrium dissociation constant (Kd) in assay [1] of 1.1 µM.

Turning to SARS-CoV NSP1 161-176, the Kd with USP7 MATH was 280 µM.

In the assay with USP7 MATH, SARS-CoV-2 NSP4 3248-3263 gave a Kd of 67 µM.

The substance SARS-CoV N 205-219 yielded a Kd with USP7 MATH of 220 µM.

Regarding “NSP3 peptide 1785-1796 (SFV, Semliki-Forest-Virus)”, the IC50 was determined as 23 µM in assay [2] and 13 µM in [3].

For SARS-CoV-2 NSP3 2019-2038, the Kd in assay [4] amounted to 210 µM.

In the assay with AP2M1 (human), N peptide 353-367 (Sars-CoV2/Sars-CoV) displayed an IC50 of 1530 µM and an inhibition constant Ki of 530 µM.

In the case of “MAP1LC3C ATG8 domain (from UniProt Q9BXW4 1-126) (domain or fragment)”, the dissociation constant (Kd) in assay [5] and in assay [6] was 1.1 µM each time.

As for SARS-CoV-2 N 405-419, the Kd in the assay with USP7 MATH turned out to be 150 µM.

N peptide 206-220 (Sars-CoV): in the assay with USP7 (human), the IC50 was 1500 µM and the Ki is 220 µM.

As to SARS-CoV NSP4 3248-3263, the Kd with USP7 MATH was found to be 67 µM.

With “NSP4 peptide 3248-3263 (Sars-CoV2/Sars-CoV)”, in the assay with USP7 (human), the IC50 amounted to 480 µM and the Ki turned out to be 67 µM.

In turn, SARS-CoV N 405-419 had a Kd with USP7 MATH of 96 µM.

In assay [7], “USP7 (from UniProt Q93009 1-1102) (domain or fragment)” gave a Kd of 0.49 µM.

Take SARS-CoV-2 NSP3 2019-2034: the Kd with USP7 MATH was determined as 37 µM.

Turning to “NSP3 peptide 1796-1809 (SFV, Semliki-Forest-Virus)”, the IC50 in assay [3] was determined as 11 µM.

As to NSP14 peptide 6498-6512 (Mers), in the assay with AP2M1 (human), the Ki worked out at 3 µM.

Regarding N peptide 406-422 (Sars-CoV), in the assay with USP7 (human), the 50% inhibitory concentration (IC50) worked out at 690 µM and the Ki turned out to be 96 µM.

SARS-CoV NSP3 2019-2038: the Kd in [4] came to 28 µM.

Turning to “NSP3 peptide 1785-1809 (SFV, Semliki-Forest-Virus)”, the IC50 was found to be 0.0044 µM in assay [2] and 0.0019 µM in assay [3]. In [3], this substance yielded a Ki of 0.15 µM.

In the assay with USP7 (human), NSP1 peptide 161-177 (Sars-CoV) registered an IC50 of 2000 µM and a Ki of 280 µM.

For the substance NSP3 peptide 1996-2011 (Sars-CoV), in the assay with USP7 (human), the IC50 came out at 210 µM and the inhibitory constant (Ki) was 29 µM. In assay [8], the IC50 came out at 200 µM and the Ki was found to be 28 µM.

In the assay with USP7 MATH, SARS-CoV NSP3 2019-2034 showed a Kd of 29 µM.

As usually defined, the Kd is the equilibrium constant for the complex coming apart. Low values mean tighter binding, high ones weaker binding. One may read the IC50 as the concentration that gives 50% inhibition. A word on the Ki: it is a measure of affinity in units of concentration, obtained from inhibition or displacement.
